Measurements as given in US20260258115A1 (MAPP BIOPHARMACEUTICAL, published 2026).

Tests used:
[1] = molecular target: T1, RSV prefusion F (preF), DS-Cav1 stabilized trimer, subtype A (Respiratory Syncytial Virus, subtype A, UniProt P03420 26-513); assay: BLI, IgG on anti-human IgG sensors
[2] = molecular target: T2, RSV postfusion F (postF), F ΔFP trimer, subtype A (Respiratory Syncytial Virus, subtype A, UniProt P03420 26-513); assay: BLI, IgG on anti-human IgG sensors, 100 nM antigen, apparent KD
[3] = molecular target: T3, RSV F on RSV subtype A virus (RSV-A2) (Respiratory Syncytial Virus, subtype A, …, UniProt P03420 26-574); assay: cell-based or functional assay
[4] = molecular target: T1, RSV prefusion F (preF), DS-Cav1 …; assay: BLI, apparent IgG KD (Table 9A)
[5] = molecular target: T2, RSV postfusion F (postF), F ΔFP trimer, …; assay: BLI, apparent IgG KD (Table 9A)
[6] = molecular target: T3, RSV F on RSV subtype A virus (RSV-A2); assay: cell-based or functional assay; remark: listed apart in the source
[7] = molecular target: RSV F on RSV subtype B virus (mKate-RSV B 18537) (Respiratory Syncytial Virus, subtype B, …, UniProt P13843 26-574); assay: cell-based or functional assay
[8] = molecular target: T4, preF (DS-Cav1) with a C-terminal 8X HisTag and AviTag (Respiratory Syncytial Virus, UniProt P03420 26-513); assay: SPR, preF (DS-Cav1) captured on NTA chip, Fab in solution, 1:1 model
T4 construct: not shown: C-terminal 8X HisTag and AviTag

[9] = molecular target: Respiratory Syncytial Virus fusion glycoprotein (RSV F) on RSV-A2 virus (Respiratory Syncytial Virus, UniProt P03420 26-574); assay: cell-based or functional assay
[10] = molecular target: RSV prefusion F (preF), DS-Cav1 (Respiratory Syncytial Virus, UniProt P03420 26-513); assay: BLI (ForteBio Octet), IgG on anti-human IgG biosensors
[11] = molecular target: RSV postfusion F (postF), F ΔFP (Respiratory Syncytial Virus, UniProt P03420 26-513); assay: BLI (ForteBio Octet), IgG on anti-human IgG biosensors, 100 nM antigen, apparent (IgG) KD
[12] = molecular target: T5, postF (RSV F ΔFP) with a C-terminal HRV 3C cleavage site, 8xHisTag and StrepTagII (Respiratory Syncytial Virus, UniProt P03420 26-109; P03420 147-513); assay: SPR, postF captured on NTA chip, Fab in solution, steady-state fit
T5 construct: also called postfusion F; not shown: C-terminal HRV 3C cleavage site, 8xHisTag and StrepTagII

B1: ADI-43639 (antibody, V domains shown)
VH: QVQLVQSGSELKKPGASVKVSCKASGYTFTSYAMNWVRQAPGQGLEWMGWINTNTGNPTYAQGFTGRFVFSLDTSVSTAYLQISSLKAEDTAVYYCAAYGIHDAFDIWGQGTMVTVSS
VL: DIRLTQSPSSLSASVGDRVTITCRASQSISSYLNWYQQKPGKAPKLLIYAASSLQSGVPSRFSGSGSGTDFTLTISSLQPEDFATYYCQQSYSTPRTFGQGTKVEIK
For B1, the binding result [1] was “no binding (tested: 100 nM antigen)”, the Kd [2] was 233 nM and the “Neutralization IC50 (RSV subtype A)” value [3] was greater than 25 µg/mL.

B2: ADI-20975 (antibody, V domains shown)
VH: QVQLVESGTHVKKPGASVKVSCEASDDTFNNKGIVWVRQAPGQGLEWMGWIRPNNGNTKYAQKFQGRVTMTTDASTNTAYMELRSLRSGDTAVYYCAREQFKWNDFYFDYWGQGILVTVSS
VL: SYELMQPPSVSVAPGQTATITCGGSNIGSETVHWYQQKPGQAPVLVVHDDTDRPSGIPERFSGSNSGNTATLTISGVEAGDEADFYCQVRDSRTDDVVFGGGTKLTVL
With B2 the Kd [4] was 0.092 nM, the Kd [5] was 0.15 nM and the “Neutralization - RSV A2 IC50 (pM)” value [6] was 67 pM. For the same binder, the “neut IC50 (ug/ml) subtype A (graham)” value [6] was 0.05 µg/mL and the “neut IC50 (ug/ml) subtype B (graham)” value [7] was 0.49 µg/mL.

B3: ADI-19425 Fab variant, light chain Y31A (Fab, V domains shown)
VH: EVQLVESGGGLVKPGGSLRLSCAASGFTFSSYSMNWVRQAPGKGLEWVSSISSSSSYIYYADSVKGRFTISRDNAKNSLYLQMNSLRAEDTAVYYCARLGYCSGGSCHFDYWGQGTLVTVSS
VL: QPVLTQPPSVSGAPGQRVTISCTGSSSNIGAGADVHWYQQLPGTAPKLLIYGNSNRPSGVPDRFSGSKSGTSASLAITGLQAEDEADYYCQSYDSSLSGFYVFGTGTKLTVL
notes: also called Y33A
For B3, the “fold reduction in affinity relative to ADI-19425 Fab” value [8] was greater than 20 fold.

B4: ADI-19425 Fab variant, light chain Y91A (Fab, V domains shown)
VH: EVQLVESGGGLVKPGGSLRLSCAASGFTFSSYSMNWVRQAPGKGLEWVSSISSSSSYIYYADSVKGRFTISRDNAKNSLYLQMNSLRAEDTAVYYCARLGYCSGGSCHFDYWGQGTLVTVSS
VL: QPVLTQPPSVSGAPGQRVTISCTGSSSNIGAGYDVHWYQQLPGTAPKLLIYGNSNRPSGVPDRFSGSKSGTSASLAITGLQAEDEADYYCQSADSSLSGFYVFGTGTKLTVL
notes: also called Y93A
For B4, the “fold reduction in affinity relative to ADI-19425 Fab” value [8] was greater than 80 fold.

B5: ADI-43647 (antibody, V domains shown)
VH: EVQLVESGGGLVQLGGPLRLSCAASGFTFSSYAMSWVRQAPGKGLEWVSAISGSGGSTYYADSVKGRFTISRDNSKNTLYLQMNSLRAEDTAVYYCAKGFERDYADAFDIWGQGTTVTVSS
VL: DIRMTQSPSSVSASVGDRVTITCRASQGISSWLAWYQQKPGKAPKLLIYAASSLQSGVPSRFSGSGSGTDFTLTISSLQPEDFATYYCQQANSFPITFGQGTRLEIK
notes: also called Ab 828; Antibody Number 828
In the case of B5, the “Neutralization IC50 (RSV subtype A)” value [9] is reported as greater than 25 µg/mL, the binding result [10] is reported as “no binding” and the Kd [11] is reported as 44.6 nM.

B6: ADI-14359 R50L Fab (germline reverted variant) (Fab, V domains shown)
VH: QVQLVQSGPALVKPTQTLTLTCTFSGFSLSTSGMCVSWIRQPPGKALEWLALIDWDDDKYYSTSLKTRLTISKDTSKNQVVLTMTNMDPVDTATYYCARATNYDSSGYYSLYFDYWGQGTLVTVSS
VL: not shown
In the case of B6, the “fold reduction in affinity relative to ADI-14359 Fab” value [12] is reported as greater than 30 fold.

B7: ADI-43648 (antibody, V domains shown)
VH: EVQLVQSGAEVKKPGASVKVSCKASGYTFTSYDINWVRQATGQGLEWMGWMNPNSGNTGYAQKFQGRVTMTRNTSISTAYMELSSLRSEDTAVYYCATRPAALDYWGQGTLVTVSS
VL: QPVLTQPLSVSVALGQTARITCGGNNIGSKNVHWYQQKPGQAPVLIIYRDSNRPSGIPERFSGSNSGNTATLTISRAQAGDEADYYCQVWDSSTWVFGGGTKLTVL
For B7, the “Neutralization IC50 (RSV subtype A)” value [9] was greater than 25 µg/mL, the binding result [10] was “no binding” and the Kd [11] was 28.6 nM.

B8: ADI-14405 (antibody, V domains shown)
VH: QVQLVQSGTEVKKPGASVKVSCKASGYTFTNYDISWVRQAPGQGLEWMGWISGSTGNTIYAQNLQGRLTMTTDTSTSTAYMELRSLRSDDTAIYYCARDNVGYASGNYFDYWGQGTLVTVSS
VL: SYVLTQPPSVSVAPGKTARIPCGGNNIGSKSVHWYQQRPGQAPVLVIYYDSVRPSGIPERFSGSNSGNTATLTISTVEAGDEADFYCQVWDSSRDHEVFGGGTKLTVL
notes: also called Ab 71; Antibody Number 71
B8 was tested, and the Kd [4] was 0.14 nM, the Kd [5] was 12 nM and the “Neutralization - RSV A2 IC50 (pM)” value [6] was 58.3 pM. For the same binder, the “neut IC50 (ug/ml) subtype A (graham)” value [6] was 0.04 µg/mL and the “neut IC50 (ug/ml) subtype B (graham)” value [7] was 0.04 µg/mL.

B9: ADI-43638 (antibody, V domains shown)
VH: QVQLQQWGAGLLKPSETLSLTCAVYGGSFSGYYWSWIRQPPGKGLEWIGEINHSGSTNYNPSLKSRVTISVDTSKNQFSLKLSSVTAADTAVYYCARGVPVLRYFDWLRFGYGMDVWGQGTTVTVSS
VL: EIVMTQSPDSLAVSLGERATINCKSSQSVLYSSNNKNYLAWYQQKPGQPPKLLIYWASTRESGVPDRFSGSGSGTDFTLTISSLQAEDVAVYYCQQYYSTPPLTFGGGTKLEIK
For B9, the binding result [1] was “no binding (tested: 100 nM antigen)”, the Kd [2] was 9.93 nM and the “Neutralization IC50 (RSV subtype A)” value [3] was greater than 25 µg/mL.
